Assay results reported in PMC9295563, “A Reduced F420-Dependent Nitrite Reductase in an Anaerobic Methanotrophic Archaeon” (Journal of Bacteriology, 2022).

Experiments:
ANME2c-FsrII-6D [1] = molecular target: T1, ANME2c-FsrII-6D (uncultured archaeon, UniProt Z9BHN8L6W9); assay: inhibition of F420H2-dependent nitrite reduction, F420H2 oxidation at […] nm; format: biochemical, uncultured ANME-2c archaeon; set-up: gene fsr; full-length two-domain protein (Fsr-N 1-341, Fsr-C 356-642); expressed from pDS701 in Methanosarcina acetivorans WWM60; F420-Sepharose purified, no tag mentioned; siroheme, FAD, about four [Fe4-S4] per subunit; conditions: read-out: apparent Ki
ANME2c-FsrII-6D [2] = molecular target: T1, ANME2c-FsrII-6D; assay: F420H2 oxidation at […] nm; set-up: gene fsr; conditions: read-out: Km (μM) for the varied substrate; 500 μM nitrite, 1-80 μM F420H2, 0.5 mM DTT, pH 7 phosphate, anaerobic; kcat in electrons transferred per subunit
[3] = tested on: CN1C=C[C](c2cc[n+](C)cc2)C=C1; assay: purified protein; format: biochemical, uncultured ANME-2c archaeon; conditions: pH 7.0
O=S(O)O = tested on: T2, O=S(O)O; assay: purified protein; format: biochemical, uncultured ANME-2c archaeon; conditions: 408 μM reduced methyl viologen, 10-500 μM sulfite, with DTT, pH 7 phosphate, anaerobic, kcat in electrons transferred per subunit
T2 construct: full-length two-domain protein (Fsr-N 1-341, Fsr-C 356-642); expressed from pDS701 in Methanosarcina acetivorans WWM60; F420-Sepharose purified, no tag mentioned; siroheme, FAD, about four [Fe4-S4] per subunit

O=NO = assay: purified protein; conditions: 40 μM F420H2, 2-100 μM nitrite, 0.5 mM DTT, pH 7 phosphate, anaerobic, kcat in electrons transferred per subunit

T1 sequence (Z9BHN8L6W9 1-642): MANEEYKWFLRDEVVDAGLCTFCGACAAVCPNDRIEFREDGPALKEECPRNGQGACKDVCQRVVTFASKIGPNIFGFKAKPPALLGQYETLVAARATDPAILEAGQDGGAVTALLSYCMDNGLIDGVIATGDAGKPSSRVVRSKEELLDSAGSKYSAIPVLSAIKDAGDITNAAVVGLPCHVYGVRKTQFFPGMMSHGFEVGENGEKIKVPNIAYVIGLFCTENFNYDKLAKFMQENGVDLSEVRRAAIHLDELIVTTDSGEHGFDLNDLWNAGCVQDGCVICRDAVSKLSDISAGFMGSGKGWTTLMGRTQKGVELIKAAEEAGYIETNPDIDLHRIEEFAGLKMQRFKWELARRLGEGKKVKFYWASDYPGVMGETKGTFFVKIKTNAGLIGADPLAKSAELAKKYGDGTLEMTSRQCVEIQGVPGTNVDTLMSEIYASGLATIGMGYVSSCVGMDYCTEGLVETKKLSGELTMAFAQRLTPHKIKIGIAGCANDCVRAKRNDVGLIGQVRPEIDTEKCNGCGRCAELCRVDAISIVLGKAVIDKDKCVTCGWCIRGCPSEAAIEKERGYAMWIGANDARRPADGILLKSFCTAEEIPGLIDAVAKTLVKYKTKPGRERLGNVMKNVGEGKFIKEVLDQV

O=S(O)O [sulfite]
Ki (ANME2c-FsrII-6D [1]): 130 ± 86 µM

F420H2
Km (ANME2c-FsrII-6D [2]): 14 ± 2 µM

ANME2c-FsrII-6D (uncultured archaeon)
Km [3]: 137 ± 26 µM
kcat/Km [3]: 0.5 ± 0.1 (MV^·+)
Km (O=S(O)O): 129 ± 20 µM
kcat (O=S(O)O): 1.07 ± 0.0667 s⁻¹
kcat/Km (O=S(O)O): 0.5 ± 0.1 (HSO3^−)
Km (O=NO): 5 ± 1 µM
kcat (O=NO): 0.3 ± 0.0167 s⁻¹
kcat/Km (O=NO): 4 ± 1 (NO2^−)
